The target in the assay is FLAG-Aac2 (S. cerevisiae) (UniProt P18239). Nature of the assay: co-IP.
Chain of UniProt P18239 (P18239 whole entry): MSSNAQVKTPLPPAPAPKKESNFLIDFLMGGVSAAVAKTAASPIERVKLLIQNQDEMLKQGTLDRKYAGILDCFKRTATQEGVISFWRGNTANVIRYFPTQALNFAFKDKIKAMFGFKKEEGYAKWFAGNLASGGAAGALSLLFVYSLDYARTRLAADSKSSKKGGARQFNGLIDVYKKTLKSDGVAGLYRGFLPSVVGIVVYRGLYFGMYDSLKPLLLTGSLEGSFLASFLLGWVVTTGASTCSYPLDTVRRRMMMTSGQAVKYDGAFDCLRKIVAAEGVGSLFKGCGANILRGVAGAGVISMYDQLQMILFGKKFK

The substance “respiratory complex III (from UniProt P07256 27-457; P07257 17-368; P08067 31-215; P00127 1-147)” registered a percent decrease of the amount co-immunoprecipitated after BKA, against CATR of 25%.
The same measure for “respiratory complex IV (from UniProt P00401 1-534; P04037 26-155)”: 50%.

The values are drawn from paper PMC7455186.
